Reference: a protein production outcome set (Wang et al. 2014)

Experiment: label from the status in PepcDB records

Sequence | protein production
MPDTPLLASSQPAAGRRALGLSARLAFAALAGGGGLAWIDRGDTALWLIAPALLWLQVLLTLAGVLALAGGSRLPGALIVALSAGLLVPPLTVEMRLLGFFLAAPPPDQSILTTAQYTLAGALAAGALAWILARRRFGRPPCSWTMLDCGGPGAEIDMDAALASLSAETLRRRDRAYIDAPPPLPFAPRGPPRPPPPTLGGPRLKRMPAGLGGAILCLESDDHTLRVHTTQGSGTLAGRLGDAALDLGESAGLRVHRSWWVAREAVSAIERDGRRMRLILLNGMDVPVSRAHQPKVLAGPWPNLRVS | failed
MDYKSKTANDKEISIYYFSATGNSLKLSQDIAAAFGGAGLFRMTPSAGITASDSRIVGFIFPVYMGGLPGIVRRFLESYPFRKGVYYFSIGTYYTYKGCAVSVVDKIMSGKGVRLDYGYNLPTVGNCLKEYEVSSVRRTKILERAELYTSRIIDDLKKGKRKKPFPYCRLSDLLHKGLFNAFFSRSHLNFSLENGCMGCGVCERVCPVNNITLKNGVPRWGTGCEACHACVHWCPRNVIQIGKSKGRLQYHHPAVKRTMLYRVELEHHHHHH | not failed
MSPGPQSGGQERGSMERKMVELEDTGLTFATEVDLERLQALAAEWLQVIGEDPGREGLLKTPERVAKAWAFLTRGYRQRLEEVVGGAVFPAEGSEMVVVKGVEFYSMCEHHLLPFFGKVHIGYIPDGKILGLSKFARIVDMFARRLQVQERLAVQIAEAIQEVLEPQGVGVVVEGVHLCMMMRGVEKQHSRTVTSAMLGVFRENQKTREEFLSHLRDGTA | not failed
MFLVTGVFVSVRHERTGTGTTARESVQRITWFGTLRDDGVALVMPLSDRMLPTGIIREVPEERFLEEFMPDQATYEEHFRETAESLRGRLQLASTLPTDLYPEERILLDALSALLHGRSAAKPVDADIPAVLELLAHGQEGRSAGAFQTRLSGAAVDYRRQGDYPRALLFYDRALTMQGQEDRLLFNVARVHYEMGELAEAETCLKRALESNPALEEAGRFLAFLQKTTLQPQAGDE | failed
MSKLIVPQWPQPKGVAACSSTRIGGVSLPPYDSLNLGAHCGDNPDHVEENRKRLFAAGNLPSKPVWLEQVHGKDVLKLTGEPYASKRADASYSNTPGTVCAVMTADCLPVLFCNRAGTEVAAAHAGWRGLCAGVLEETVSCFADNPENILAWLGPAIGPRAFEVGGEVREAFMAVDAKASAAFIQHGDKYLADIYQLARQRLANVGVEQIFGGDRCTYTENETFFSYRRDKTTGRMASFIWLI | not failed
MFYFMTLSFIIMPALGCFLIGLVLAKSDRWTFSWILSLIGLVAFISSFWHIERADLWFMLSYSFGPFLMGFGFTWDLSNKRRMQLLLLGLFFLIFFMILYYLIVRILNTAVV | failed
MIDTFERTGPLMEASSYPAWAQQLINDCSPAKARVVEHELYQQMRDAKLSPQIMRQYLIGGWPVVEQFAVYMAKNLTKTRFGRHPGEDMARRWLMRNIRVELNHADYWVNWCAAHDVTLEDLHDQRVAPELHALSHWCWQTSSSDSLAVAMAATNYAIEGATGEWSAVVCSTGVYAEAFAEETRKKSMKWLKMHAQYDDAHPWEALEIICTLVGNKPSLQLQAELRQAVTKSYDYMYLFLERCIQLDKVKSPRGRVAALEM | not failed
MKHEAIGHDTIAKFLLTSGSTGNPKAVINTQRMICANQVMIREAMAFLKDEPPVIVDWLPWNHTFGGNHNIGLTLFNGGSMYIDDGKPTPAGIASTIRNLREIAPTVYFNVPKGYESLLPVLREDQQLRKLFFSRLHAMFFSGASLAAHVWNGLDEVAVAETGARVPMLTGLGATETAPFFMSVTPQTSRSGHVGLEHHHHHH | failed
MHTSVQHAKTCLAVTSVSPIYVFGKTTFVSELIEQAGGKNCVETIQSAYPTVDVEYILRANPDVFIFNSTDQQKLFFETYPLLKQCKGYITNQLFVIDDSIMSRPGIRLPILKDSLVSILSKLEHHHHHH | failed
MSDSLRIIFAGTPDFAARHLGALLSSQHKIVGVFTQPDRPAGRGNKLTPSPVKILAEHHGIPVFQPKSLRPEENQHLVADLNADIMVVVAYGLILPAAVLAMPRLGCINVHGSLLPRWRGAAPIQRSVWAGDEKTGITIMQMDIGLDTGAMLHKIECAIQPEDTSATLYDKLAQLGPQGLLITLQQLAAGTALAEVQNETQATYAEKLSKEEAKLDWTLSATQLERCIRAFNPWPVSYFIVDEQPIKVWQAQVLPAGEDAEPGTIIHADKHGIQVATADGVLNITQLQPAGKKAMSAADLLNSRREWFIPGSQLV | not failed
MSFVAYEELIKEGDTAILSLGHGAMVAVRVQRGAQTQTRHGVLRHSVDLIGRPFGSKVTCGRGGWVYVLHPTPELWTLNLPHRTQILYSTDIALITMMLELRPGSVVCESGTGSGSVSHAIIRTIAPTGHLHTVEFHQQRAEKAREEFQEHRVGRWVTVRTQDVCRSGFGVSHVADAVFLDIPSPWEAVGHAWDALKVEGGRFCSFSPCIEQVQRTCQALAARGFSELSTLEVLPQVYNVRTVSLPPPDLGTGTDGPAGSDTSPFRSGTPMKEAVGHTGYLTFATKTPG | not failed
MSRPADKPQPFYFAYGSNMNPAQIEARCRKPEVVATARLPDHRLGFFGSSKIWDGGEESAQPEPGADLWGVVYRLSFHDAEILDTWQKVWLDGTGPYFHFPTQVFDAEGRNYPVLLYKRDVLGPRQKPSAPYLDHIIAGAMARALPPPYIDLLRAIPTCQASTPVPRKASFNPEFFAGLACQCGDLEHHHHHH | failed
MIFMRTEDVRRDIPLLRDHVYLDAASTTPTPLPVVRAMTEYFKEYNANTGRGAYSLVLRATRKLQEAREKVAGFINASSDEIVFTKNTSEAINIVAGGLRFRKGDSVVVPNIEHHSNFLPWLRLRERGVDVRVVKADEGGVVDPGRIEDAVDETTRLVTVTHISNALGTVQDVKEIGRIAHDVGALYLVDAAQSIGHMEVDVRAIGADFAAFPGHKGTLGPVGTGFLYCSTDVQGELEPLMLGGGTVLDVSEDGYVLEDFPAKFEAGTLNIAGFIGLGASIDYMNRIGIRRIQKHGMKMTEELHATVSSIDGIECYGDPQNIYGILSFNINNMDPHDVAKILDETAGICVRSGHHCAIPAMKHLALHETGGTVRASIHYYNTSEEIQLLGETLEEIAGMG | failed
MVPDYFSASEWTIIADVLGANSRHLFELYALKQSNHYQSLMGSKAGTFEDIVDAYLAYLQVAVVNPAMDKALLRLQRYATDVRKGSIPYEKLRFGASWRHPPQTEDPTQNSEWAKIQLMDFVQALVNTEFAVGILYTQRDPSFFRPISQGIKRCLVRWNVDEISVSCARTHVGLRFYREVENIKGRCFCCRQGLTFSKITLRRDVGGKNLQLQNGVIVTTDRSSLQRLKQKPDLIYGIWERPHGFNLRSVQENNEHNN | failed
MRKIFLACPYSHADAEVVEQRFRACNEVAATIVRAGHVVFSQVSMSHPINLCLAELDRAAIGRLWAPVDAFYMDHLEELIVLDLPGWRDSAGIRREMEFFEAGGQRVSLWSEVEHEFR | not failed
MEVKKELNAQSGKKSLMTIENRKRLLLTGVSEVVNFNDEQIVLNTNLGSLIIKGRELKMNKLDVQNGDIAITGTINAVYSGNESSNKKDSIISRLFKLEHHHHHH | failed
MDSRAAAEPIPHVSPSPFPNPSAVNQTLEERLGLDLVQVYDWDWWGTLVQSGESLLLILSTLWCILLARVVCQKLRLHGSADLCYATEFLLVILPCILLVSVAVDYSGYIGLLMLVATLWFLRTSRALERARTRVQFDLGGNRPMCLSILRALTHLITAVCILAIDFGSFYRPYRKSRQFGAKLMDTGIGLFVFTMAMVSRRTRHWSDLRRSVIYSALPLILLGLARTVSILTLSYGQDAHEYGQHLNAFFTLGFTKFLGSLVSILARKDLHLLPLGFGLLVIHQFGLSVLGISDYVMNEDVERSSFLNANREGLVSLPGFVGLFLLSIYVNRWMVAKSLLTYSEFVRKLRRLFYLVLILWTSFVISAYEIGISRVTCNLGYVIWMLAIGSTTLCASFGAIDFAINSVMPWDPNPWEDHEKGLLSGEAVVKKRGGSVVPFTISQALNKNGLTFFLVANILTGMVNIFLRPEDRSHSESVIILLVYMFLATKLVHELLKRGIRLA | failed
MKRQYYIGISLFITIIILVLDQITKFIIASSMKVGDSFEVIPNFLNITSHRNDGAAWGILSGKMSFFFIITIIILVVLIVFYIKEAKNNLLMQIAISLLFAGALGNFIDRVLHGEVVDFVDTYIFGYNFPIFNVADSSLTIGVLLIIIALLTDMKKEE | failed
MNNTPKLKLGIVAVSRDCFPMELSENRRKAVVDAYNGEIFECLTTVENEKDMRKALKEVKSAGVNALVVYLGNFGPETPETLIAKEFDGPVMFAAAAEERGDNLVNGRGDAYCGMLNASYNLALRNINAYIPEYPVGTASDVANMINEFVPVATALIGLKNLKIISFGPRPQDFLACNAPIKQLYNLGVEIEENSELDLFASFNEHENDSRIPDVVKDMEEELGEGNKMPGILPKLAQYELTLLDWAEEHKGSREYVVFANKCWPAFQTQFGCVPCYVNSRLTARGIPVSCEVDIYGALSEYIGTCVSQDVVTLLDINNTVPKDMYESEIKSKFNYTLKDTFMGFHCGNTAACKLTSGTMKNQMIMARALEPNQEPNITRGTLEGDIVPGEITFFRLQSNADSELTAYVAEGEVLPVKTRSFGSIGVFAIPQMGRFYRHVLIENRFPHHGAVAFGHFGKAIYNLFRYLGVKEVGFNRPKEMLYKTENPFELEHHHHHH | not failed
MDEIESLIGLRPTPLTWPVVIAGDFLGVWDPPPSLPGAANHEISAPTARISCMLIERRDAAARLRRALHRAPVVLLTGPRQAGKTTLSRLVGKSAPECTFDAENPVDATRLADPMLALSGLSGLITIDEAQRIPDLFPVLRVLVDRPVMPARFLILGSASPDLVGLASESLAGRVELVELSGLTVRDVGSSAADRLWLRGGLPPSFTARSNEDSAAWRDGYITTFLERDLAQLGVRIPAATMRRAWTMLAHYHGQLFSGAELARSLDVAQTTARRYLDALTDALVVRQLTPWFANIGKRQRRSPKIYIRDTGLLHRLLGIDDRLALERNPKLGASWEGFVLEQLAALLAPNPLYYWRTQQDAELDLYVELSGRPYGFEIKRTSTPSISRSMRSALVDLQLARLAIVYPGEHRFPLSDTVVAVPADQILTTGSVDELLALLK | failed
MTLKGTAERWGWMSQALHWLIAVLILGLGIGGLIMGKLPKTPNYFWVYTAHKSIGISVLALAVLRLFWRLYAGAPKPIAGTPVWQERVANATHIMLYVLIFTIPLAGWLYDSARGLRTFYWFGLFEMPALVSPNETIRGVALEIHKLSFWALIGLVVLHAGAAFHHHLIQRDATLARMLPRNWFSSKS | failed
MNGFSQLEGLRGHPSVVRVIGHRGARGVMPENTLEGFAFTLAAGVRALEFDVVMTADGVPVVTHNHHLANAMTRDGQGHWLTGAERQVAEMTYAEIRALDVGGLDGRTVYGRRFPDQAFLTGIHVPRLGELLDLCAGYGDQAPYLLLELKSDPALMHDHAARAEMVAAVLADVRRYRMEPRTVMHSFDWALLGECRRQAPDLPTSYLSQLPENADDPGEDSAKPVGPDYDRMTESLPQAVASAGGQLWCPYFLDVTPELVAEAHDLGLIVLTWTVNEPEDIRRMATTGVDGIVTDYPGRTQRILIDMGLSWT | not failed
MSIRLTNISKKFGQFQALSPLNLDIQEGEMIGLLGPSGSGKTTLLRIIAGLEGADSGHIHFGNRDVTQVHVRDRRVGFVFQNYALFRHMTVADNVAFGLEVIPKKQRPSAAEIQKRVSHLLEMVQLGHLAQRYPEQLSGGQKQRIALARALATQPEVLLLDEPFGALDAKVRKELRRWLRSLHDELKFTSVFVTHDQDEALELSDRVVVMSNGNIEQVNTPIELYAQPNSRFVFDFLGNVNRFEANWQQNRWTNGDAFIVPPEQTPLQQNGALYVRSHELALADKPNSQAHIPFTIVAITPIGAEVRVELAPIGWQSEELWEAKFTHHHLQELGLQKGSVVYATPRTGYFFGKQGDGSPIRQSWPFLPPGSLAFDI | failed
